Laboratory results as given in US20180155451A1 (published 2018).

B1: GpH7-A5/GpH7-B3 variant E333_04F/GpL16-k0 (antibody, human IgG1, kappa)
heavy 1: not shown
heavy 2: not shown
light: DIVMTQSPLSLPVTPGEPASISCQASESLVHSNRNTYLHWYLQKPGQSPQLLIYKVSNRFSGVPDRFSGSGSGTDFTLKISRVEAEDVGVYYCSQNTHVPPTFGQGTKVEIERTVAAPSVFIFPPSDEQLKSGTASVVCLLNNFYPREAKVQWKVDNALQSGNSQESVTEQDSKDSTYSLSSTLTLSKADYEKHKVYACEVTHQGLSSPVTKSFNRGEC
notes: also called He Ab E333_04F
B2: GpH7-A5/GpH7-B3 variant K326_07I/GpL16-k0 (antibody, human IgG1, kappa)
heavy 1: not shown
heavy 2: not shown
light: B1 light
notes: also called He Ab K326_07I
B3: GpH7-A5/GpH7-B3 variant T335_16H/GpL16-k0 (antibody, human IgG1, kappa)
heavy 1: not shown
heavy 2: not shown
light: B1 light
notes: also called He Ab T335_16H
B4: GpH7-A5/GpH7-B3 variant S337_09D/GpL16-k0 (antibody, human IgG1, kappa)
heavy 1: not shown
heavy 2: not shown
light: B1 light
notes: also called He Ab S337_09D
B5: GpH7-A5/GpH7-B3-15-02A/GpL16-k0 (antibody, human IgG1, kappa)
heavy 1: not shown
heavy 2: not shown
light: B1 light
notes: H2 S298A
B6: GpH7-A5/GpH7-B3 variant S324_16H/GpL16-k0 (antibody, human IgG1, kappa)
heavy 1: not shown
heavy 2: not shown
light: B1 light
notes: also called He Ab S324_16H
B7: GpH7-A5/GpH7-B3 variant I332_06M/GpL16-k0 (antibody, human IgG1, kappa)
heavy 1: not shown
heavy 2: not shown
light: B1 light
notes: also called He Ab I332_06M
B8: GpH7-A5/GpH7-B3 variant T335_10E/GpL16-k0 (antibody, human IgG1, kappa)
heavy 1: not shown
heavy 2: not shown
light: B1 light
notes: also called He Ab T335_10E
B9: GpH7-A5/GpH7-B3 variant H268_18N/GpL16-k0 (antibody, human IgG1, kappa)
heavy 1: not shown
heavy 2: not shown
light: B1 light
notes: also called He Ab H268_18N
B10: GpH7-A5/GpH7-B3 variant P238_09D/GpL16-k0 (antibody, human IgG1, kappa)
heavy 1: not shown
heavy 2: not shown
light: B1 light
notes: also called He Ab P238_09D
B11: GpH7-A5/GpH7-B3-01-15Y/GpL16-k0 (antibody, human IgG1, kappa)
heavy 1: not shown
heavy 2: not shown
light: B1 light
notes: also called He Ab L234_15Y; GpH7-A5/GpH7-B3 variant L234_15Y/GpL16-k0
B12: GpH7-A5/GpH7-B3 variant S267_09D/GpL16-k0 (antibody, human IgG1, kappa)
heavy 1: not shown
heavy 2: not shown
light: B1 light
notes: also called He Ab S267_09D
B13: GpH7-A5/GpH7-B3 variant P271_01G/GpL16-k0 (antibody, human IgG1, kappa)
heavy 1: not shown
heavy 2: not shown
light: B1 light
notes: also called He Ab P271_01G
B14: GpH7-A5/GpH7-B3 variant T335_15Y/GpL16-k0 (antibody, human IgG1, kappa)
heavy 1: not shown
heavy 2: not shown
light: B1 light
notes: also called He Ab T335_15Y
B15: GpH7-A5/GpH7-B16/GpL16-k0 (antibody, human IgG1, kappa)
heavy 1: not shown
heavy 2: not shown
light: B1 light
notes: also called He Ab L234_10E; GpH7-A5/GpH7-B3 variant L234_10E/GpL16-k0
B16: GpH7-A5/GpH7-B3 variant S337_18N/GpL16-k0 (antibody, human IgG1, kappa)
heavy 1: not shown
heavy 2: not shown
light: B1 light
notes: also called He Ab S337_18N
B17: GpH7-A5/GpH7-B3 variant S267_02A/GpL16-k0 (antibody, human IgG1, kappa)
heavy 1: not shown
heavy 2: not shown
light: B1 light
notes: also called He Ab S267_02A
B18: GpH7-A5/GpH7-B3 variant T335_07I/GpL16-k0 (antibody, human IgG1, kappa)
heavy 1: not shown
heavy 2: not shown
light: B1 light
notes: also called He Ab T335_07I
B19: GpH7-A5/GpH7-B3 variant L234_07I/GpL16-k0 (antibody, human IgG1, kappa)
heavy 1: not shown
heavy 2: not shown
light: B1 light
notes: also called He Ab L234_07I
B20: GpH7-A5/GpH7-B3 variant E333_20W/GpL16-k0 (antibody, human IgG1, kappa)
heavy 1: not shown
heavy 2: not shown
light: B1 light
notes: also called He Ab E333_20W
B21: GpH7-A5/GpH7-B3 variant S298_14T/GpL16-k0 (antibody, human IgG1, kappa)
heavy 1: not shown
heavy 2: not shown
light: B1 light
notes: also called He Ab S298_14T
B22: GpH7-A5/GpH7-B3 variant T335_19Q/GpL16-k0 (antibody, human IgG1, kappa)
heavy 1: not shown
heavy 2: not shown
light: B1 light
notes: also called He Ab T335_19Q
B23: GpH7-A5/GpH7-B3 variant I336_02A/GpL16-k0 (antibody, human IgG1, kappa)
heavy 1: not shown
heavy 2: not shown
light: B1 light
notes: also called He Ab I336_02A
B24: GpH7-A5/GpH7-B3 variant K326_08L/GpL16-k0 (antibody, human IgG1, kappa)
heavy 1: not shown
heavy 2: not shown
light: B1 light
notes: also called He Ab K326_08L
B25: GpH7-A5/GpH7-B3 variant S337_20W/GpL16-k0 (antibody, human IgG1, kappa)
heavy 1: not shown
heavy 2: not shown
light: B1 light
notes: also called He Ab S337_20W
B26: GpH7-A5/GpH7-B3 variant G236_15Y/GpL16-k0 (antibody, human IgG1, kappa)
heavy 1: not shown
heavy 2: not shown
light: B1 light
notes: also called He Ab G236_15Y

The binders below were run against T1, FcγRIIIa extracellular domain with C-terminal His tag (human, UniProt P08637 17-208) (assay: SPR relative binding; GpH7-A5/GpH7-B3/GpL16-k0 = 100).
T1 construct: extracellular domain; also called FcgRIIIa; 3a; not shown: His tag at the C terminus
T1 sequence (P08637 17-208): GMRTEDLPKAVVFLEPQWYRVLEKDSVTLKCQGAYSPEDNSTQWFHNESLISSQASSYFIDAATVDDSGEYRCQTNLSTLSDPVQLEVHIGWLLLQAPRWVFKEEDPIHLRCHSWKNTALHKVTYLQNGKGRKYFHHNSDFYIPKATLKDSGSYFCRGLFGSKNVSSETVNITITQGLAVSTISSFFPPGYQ
Protocol: Analysis of interaction between objective antibody and the FcγR was carried out using Biacore T100 (GE Healthcare). HBS-EP+ (GE Healthcare) was used as the running buffer, and the measurement temperature was set to 25° C. Chips produced by immobilizing the antigen peptide by the amine coupling method to a Series S Sencor Chip CM5 (GE Healthcare), or alternatively, chips produced by allowing preliminarily biotinylated antigen peptides to interact with and immobilize onto a Series S Sensor Chip SA (certified) (GE Healthcare) were used. Antibodies of interest were captured onto an antigen peptide-immobilized chip, and allowed to interact to each FcγR diluted with running buffer. To regenerate and repeatedly use the chip, the antibodies captured on the chip were washed off by reacting 10 mM glycine-HCl, pH 1.5.
The FcγR-binding activity of each antibody was assessed primarily using as an indicator the FcγR-binding activity and dissociation constant for FcγR.

| He/Con_3a | FcγRIIIa BINDING ACTIVITY | Binder |
| --- | --- | --- |
| 101 % of control | – | B1 |
| 139 % of control | – | B2 |
| 104 % of control | – | B3 |
| 110 % of control | – | B4 |
| – | 163 % of control | B5 |
| 104 % of control | – | B6 |
| 101 % of control | – | B7 |
| 107 % of control | – | B8 |
| 104 % of control | – | B9 |
| 106 % of control | – | B10 |
| 130 % of control | 131 % of control | B11 |
| 181 % of control | – | B12 |
| 113 % of control | – | B13 |
| 104 % of control | – | B14 |
| 114 % of control | – | B15 |
| 104 % of control | – | B16 |
| 150 % of control | – | B17 |
| 107 % of control | – | B18 |
| 103 % of control | – | B19 |
| 101 % of control | – | B20 |
| 113 % of control | – | B21 |
| 102 % of control | – | B22 |
| 111 % of control | – | B23 |
| 114 % of control | – | B24 |
| 101 % of control | – | B25 |
| 121 % of control | – | B26 |
